Reference: US20140271675A1 (Eli Lilly, published 2014)

Columns and labels:
[1] = biological target: hVEGFR1-Fc (R&D 321-fl 050/cf) (human) (UniProt P17948); experiment: competition ELISA, coated hVEGFR1-Fc, competitor biotin-hVEGFA-165 2 nM; control Ron antibody 16.667 µg/ml
[2] = biological target: hVEGFR1-Fc (R&D 321-fl 050/cf) (human) (UniProt P17948); experiment: competition ELISA, coated hVEGFR1-Fc, competitor biotin-hPLGF1 4 nM; control Ron antibody 0.0023 µg/ml
[3] = biological target: hVEGFR1-Fc (R&D 321-fl 050/cf) (human) (UniProt P17948); experiment: competition ELISA, coated hVEGFR1-Fc, competitor biotin-hVEGFA-165 2 nM; control Ron antibody 0.0206 µg/ml
[4] = biological target: hVEGFR1-Fc (R&D 321-fl 050/cf) (human) (UniProt P17948); experiment: competition ELISA, coated hVEGFR1-Fc, competitor biotin-hVEGFA-165 2 nM; control Ron antibody 0.0023 µg/ml
[5] = biological target: hVEGFR1-Fc (R&D 321-fl 050/cf) (human) (UniProt P17948); experiment: competition ELISA, coated hVEGFR1-Fc, competitor biotin-hPLGF1 4 nM; control Ron antibody 0.0206 µg/ml
[6] = biological target: hVEGFR1-Fc (R&D 321-fl 050/cf) (human) (UniProt P17948); experiment: competition ELISA, coated hVEGFR1-Fc, competitor biotin-hVEGFA-165 2 nM; control Ron antibody 0.206 µg/ml
[7] = biological target: hVEGFR1-Fc (R&D 321-fl 050/cf) (human) (UniProt P17948); experiment: competition ELISA, coated hVEGFR1-Fc, competitor biotin-hVEGFA-165 2 nM; control Ron antibody 0.0617 µg/ml
[8] = biological target: hVEGFR1-Fc (R&D 321-fl 050/cf) (human) (UniProt P17948); experiment: competition ELISA, coated hVEGFR1-Fc, competitor biotin-hVEGFA-165 2 nM; control Ron antibody 50.000 µg/ml

Chain of hVEGFR1-Fc (R&D 321-fl 050/cf) (human) (P17948 27-758): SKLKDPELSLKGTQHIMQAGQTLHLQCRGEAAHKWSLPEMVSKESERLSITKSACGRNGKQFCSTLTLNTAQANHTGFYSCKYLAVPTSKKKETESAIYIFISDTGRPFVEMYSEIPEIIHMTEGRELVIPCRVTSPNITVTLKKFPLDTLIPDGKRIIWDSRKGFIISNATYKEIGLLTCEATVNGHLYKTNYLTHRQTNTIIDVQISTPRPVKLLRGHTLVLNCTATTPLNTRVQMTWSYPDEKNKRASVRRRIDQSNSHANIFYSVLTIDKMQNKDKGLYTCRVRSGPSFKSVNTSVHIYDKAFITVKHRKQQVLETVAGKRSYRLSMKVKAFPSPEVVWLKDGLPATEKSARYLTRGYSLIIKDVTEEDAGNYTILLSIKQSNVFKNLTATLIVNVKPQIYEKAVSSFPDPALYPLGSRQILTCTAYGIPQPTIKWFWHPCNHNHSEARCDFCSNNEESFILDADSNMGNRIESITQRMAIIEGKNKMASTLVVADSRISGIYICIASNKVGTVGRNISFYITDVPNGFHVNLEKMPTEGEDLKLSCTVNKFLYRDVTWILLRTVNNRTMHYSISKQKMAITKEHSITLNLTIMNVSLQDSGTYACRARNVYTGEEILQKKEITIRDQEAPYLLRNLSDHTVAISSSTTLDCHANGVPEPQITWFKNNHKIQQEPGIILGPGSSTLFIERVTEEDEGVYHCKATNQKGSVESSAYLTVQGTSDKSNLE

**Q.** How did the OD560 (bound biotinylated VEGF-A) [1] turn out when control Ron antibody (R&D MAB691) was run?
**A.** Its OD560 (bound biotinylated VEGF-A) is 0.566 OD.

**Q.** What about the OD560 (bound biotinylated PlGF) [2] of the same substance?
**A.** Its OD560 (bound biotinylated PlGF) is 0.359 OD.

**Q.** What about the OD560 (bound biotinylated VEGF-A) [3] of the same substance?
**A.** Its OD560 (bound biotinylated VEGF-A) is 1.62 OD.

**Q.** And the OD560 (bound biotinylated VEGF-A) [4]?
**A.** Its OD560 (bound biotinylated VEGF-A) is 1.54 OD.

**Q.** And the OD560 (bound biotinylated PlGF) [5]?
**A.** Its OD560 (bound biotinylated PlGF) is 0.389 OD.

**Q.** What about the OD560 (bound biotinylated VEGF-A) [6] of the same substance?
**A.** The OD560 (bound biotinylated VEGF-A) was 0.554 OD.

**Q.** And the OD560 (bound biotinylated VEGF-A) [7]?
**A.** The OD560 (bound biotinylated VEGF-A) was 1.51 OD.

**Q.** What about the OD560 (bound biotinylated VEGF-A) [8] of the same substance?
**A.** The OD560 (bound biotinylated VEGF-A) was 0.515 OD.
